From paper PMC8890701 (Science Advances, 2022)

What was measured:
[1] = biological target: S. pneumoniae LicB (S. pneumoniae); assay: cryo-EM structure
S. pneumoniae LicB = biological target: T1, S. pneumoniae LicB (Streptococcus pneumoniae TIGR4 (ATCC …)); assay: cryo-EM structure
T1 chain: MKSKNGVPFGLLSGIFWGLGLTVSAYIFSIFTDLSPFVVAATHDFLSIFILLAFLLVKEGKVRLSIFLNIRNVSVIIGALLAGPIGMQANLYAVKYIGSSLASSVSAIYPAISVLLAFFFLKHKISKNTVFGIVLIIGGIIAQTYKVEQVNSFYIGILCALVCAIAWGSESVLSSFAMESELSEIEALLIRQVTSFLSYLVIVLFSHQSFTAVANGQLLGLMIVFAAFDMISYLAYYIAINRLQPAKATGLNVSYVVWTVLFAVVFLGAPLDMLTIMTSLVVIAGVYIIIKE

Molecule | stoichiometry N [1] | binding result (S. pneumoniae LicB)
S. pneumoniae LicB (natural protein) | 2 | –
sybody C (VHH) VHH: QVQLVESGGGSVQAGGSLRLSCAASGTIHAIGYLGWFRQAPGKEREGVAALTTYDGWTYYADSVKGRFTVSLDNAKNTVYLQMNSLKPEDTALYYCAAADDGWMFPLYHNHYEYWGQGTQVTVSA | – | binds
